Test results: patent US8524231
Changes are numbered by the printed parent chain.

How the values were obtained:
[1] = target: biotinylated human IL-1Beta (human) (UniProt P01584); experiment: ELISA based competition assay against the antagonistic reference mouse mAb (competitor)
[2] = target: biotinylated human IL-1Beta (human) (UniProt P01584); experiment: cell-based or functional assay
[3] = target: biotinylated human IL-1Beta (human) (UniProt P01584); experiment: competition ELISA: periplasmic Fab extract plus biotinylated IL-1Beta on coated mouse mAb (competitor); reduced signal means competition

biotinylated human IL-1Beta (human), sequence (P01584 117-269 limits assumed): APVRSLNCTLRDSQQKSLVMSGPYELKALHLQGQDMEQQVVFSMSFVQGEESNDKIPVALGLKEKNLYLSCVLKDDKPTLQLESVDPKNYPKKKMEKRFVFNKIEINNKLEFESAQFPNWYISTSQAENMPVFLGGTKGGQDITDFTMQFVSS

B1: antagonistic Fab 1C3 (Fab, part only; not given: lambda light chain, constant domains, V domains shown, not shown: a dimerising Fc or GST)
VH: EVQLVESGGGLVQPGGSLRLSCAASGFTFSSYWMYWVRQAPGKGLEWVSAINTGGGRTYYADSVKGRFTISRDNAKNTLYLQMNSLKSEDTAVYYCAKGTSADGSSWYVPADPYDYWGQGTQVTVSS
Q: Which concentration at which competition is seen [1] does the source give for B1 here?
A: Its concentration at which competition is seen is > 50 µg/mL.

Q: And the IC50 in the bioassay [2]?
A: Its IC50 in the bioassay is 3 µg/mL.

Q: And the signal (OD) in the competition assay [3]?
A: The signal (OD) in the competition assay was 0.386 OD.

B2: antagonistic Fab 1A1 (Fab, part only; not given: lambda light chain, constant domains, V domains shown, not shown: a dimerising Fc or GST)
VH: EVQLVESGGGLVQPGGSLRLSCAASGFTFDDYAMSWVRQAPGKGLEWVSTISWNGGATYYAESMKGRFTISRDNAKNTLYLQMNSLKSEDTAVYYCAKPYYSDYVGVEYDYWGQGTQVTVSS
Q: Which signal (OD) in the competition assay [3] does the source give for B2 here?
A: Its signal (OD) in the competition assay is 0.205 OD.

B3: antagonistic Fab 1B3 (Fab, part only; not given: lambda light chain, constant domains, V domains shown, not shown: a dimerising Fc or GST)
VH: EVQLVQSGAELRNPGASVKVSCKASGYTFTSYYIDWVRQAPGQGLEWMGRIDPEDGGTKYAQKFQGRVTFTADTSTSTAYVELSSLRSEDTAVYYCARSGRYELDYWGQGTQVTVSS
Q: For B3, which signal (OD) in the competition assay [3] is on record?
A: Its signal (OD) in the competition assay is 0.444 OD.

B4: Fab 1G1 (clone related to 1B3) (Fab, part only; not given: light chain, V domains shown, part only)
VH: B3 VH with I34T, G57D, S84T, A97L, R101A
Q: With B4 as the binder, how does the signal (OD) in the competition assay [3] read?
A: Its signal (OD) in the competition assay is 0.498 OD.
